{
  "source": "paper PMC10201424",
  "about": "“Biochemical characterisation of Mer3 helicase interactions and the protection of meiotic recombination intermediates” (Nucleic Acids Research, 2022)",
  "binders": {"B1": {"name": "Top3/Rmi1 complex (as used in MST and XL-MS) (complex, S. cerevisiae)", "chain 1": "MKVLCVAEKNSIAKAVSQILGGGRSTSRDSGYMYVKNYDFMFSGFPFARNGANCEVTMTSVAGHLTGIDFSHDSHGWGKCAIQELFDAPLNEIMNNNQKKIASNIKREARNADYLMIWTDCDREGEYIGWEIWQEAKRGNRLIQNDQVYRAVFSHLERQHILNAARNPSRLDMKSVHAVGTRIEIDLRAGVTFTRLLTETLRNKLRNQATMTKDGAKHRGGNKNDSQVVSYGTCQFPTLGFVVDRFERIRNFVPEEFWYIQLVVENKDNGGTTTFQWDRGHLFDRLSVLTFYETCIETAGNVAQVVDLKSKPTTKYRPLPLTTVELQKNCARYLRLNAKQSLDAAEKLYQKGFISYPRTETDTFPHAMDLKSLVEKQAQLDQLAAGGRTAWASYAASLLQPENTSNNNKFKFPRSGSHDDKAHPPIHPIVSLGPEANVSPVERRVYEYVARHFLACCSEDAKGQSMTLVLDWAVERFSASGLVVLERNFLDVYPWARWETTKQLPRLEMNALVDIAKAEMKAGTTAPPKPMTESELILLMDTNGIGTDATIAEHIDKIQVRNYVRSEKVGKETYLQPTTLGVSLVHGFEAIGLEDSFAKPFQRREMEQDLKKICEGHASKTDVVKDIVEKYRKYWHKTNACKNTLLQVYDRVKASM", "chain 2": "MSFSSILSQDITDDITPPAYSATLGSREQIVFRAYQNEPWLAGTASNLILDKKLVIVDRELLFQVLMVENITKSKLTQIDDIKTKLDPKKQKVDRLRSGAQGNGAKKYEVITQVDMEDDGNVADNNCAKENNSNNNSSAAKNKAVFKLTLQSKSGDVFFAINSTPISWSSCMLGSKIVILPGTVFNRGVFILKDSQVIFLGGINRVWNENRDQKFCDYLESKLQRDKQLVNGGSKKRKAND", "notes": "Top3 (type IA topoisomerase), S. cerevisiae, from SK1 strain genomic DNA; untagged; Rmi1, S. cerevisiae, from SK1 strain genomic DNA; The methods describe a GST-tagged and an untagged (3C protease cleaved) preparation; source: Hi5 insect cells (co-expressed from pBIG1a), purified"}, "B2": {"name": "Top3, untagged (chain of the Top3/Rmi1 complex) (enzyme, S. cerevisiae, UniProt P13099 1-656, looked up)", "chain": "MKVLCVAEKNSIAKAVSQILGGGRSTSRDSGYMYVKNYDFMFSGFPFARNGANCEVTMTSVAGHLTGIDFSHDSHGWGKCAIQELFDAPLNEIMNNNQKKIASNIKREARNADYLMIWTDCDREGEYIGWEIWQEAKRGNRLIQNDQVYRAVFSHLERQHILNAARNPSRLDMKSVHAVGTRIEIDLRAGVTFTRLLTETLRNKLRNQATMTKDGAKHRGGNKNDSQVVSYGTCQFPTLGFVVDRFERIRNFVPEEFWYIQLVVENKDNGGTTTFQWDRGHLFDRLSVLTFYETCIETAGNVAQVVDLKSKPTTKYRPLPLTTVELQKNCARYLRLNAKQSLDAAEKLYQKGFISYPRTETDTFPHAMDLKSLVEKQAQLDQLAAGGRTAWASYAASLLQPENTSNNNKFKFPRSGSHDDKAHPPIHPIVSLGPEANVSPVERRVYEYVARHFLACCSEDAKGQSMTLVLDWAVERFSASGLVVLERNFLDVYPWARWETTKQLPRLEMNALVDIAKAEMKAGTTAPPKPMTESELILLMDTNGIGTDATIAEHIDKIQVRNYVRSEKVGKETYLQPTTLGVSLVHGFEAIGLEDSFAKPFQRREMEQDLKKICEGHASKTDVVKDIVEKYRKYWHKTNACKNTLLQVYDRVKASM", "notes": "Top3 (type IA topoisomerase), S. cerevisiae, from SK1 strain genomic DNA; untagged; Same chain as in m10 and m11; source: Hi5 insect cells (co-expressed with GST-Rmi1), purified with Rmi1"}, "B3": {"name": "MBP-Mlh2 (chain of the MBP-Mlh1/MBP-Mlh2 complex) (natural protein, S. cerevisiae, UniProt Q07980 1-695, looked up)", "chain": "MTIHQLSPESQWKIVSSSFIYGPVAAVRELLDNSIDSGAKKVFIDVDSTTGGCEYISVKDDGSGVDIIDRPSMCLEYTTSKMSSLGDISILTTLGFRGEALFLLSNLCNQKGSMQVETKTADDVIGEKWLVDSKGGITNGKRYKVSCPVGTTVILRKLLGGLRARYLEISSRPRKTFDELIYLINHYSLIHRNIRFYFSLVSLQKNGAIERKQMQETLDPKISRARSLSLLARLKKPVPLNFIVEENFVIDEKINLDLILPRMVPESDVINIKRRFKFLSVNERALSLNLETGKTISKLLSSIYRDFSLLDPMVWFINLNCDTKLLDVNIEPEKNDVMIKSFEVIFKKIENKLKLLLEERIGIETNMLGDKHVQPSINEKTSPALVIPTPDAENEISKGCGAVSGKDKTDIPQKNSDLIVPTFYDEANLENTTIVAATPSPTKFSEDKALDEQTQLTISSYRSSSSGSMASEDSTNWRHNFQQELSENSEVAGAGSSTLPSSLTYNYIETIPENEDLELSKDASISNPFMITKIRNVNKKLSENLLEAKRTSCGDANKRGMPNERQLSNTEKKELIKLQQTYGKRNNTVDMTIPRNSKKKVTDNYIKKASCMHKTRPKLMHFSEYTNNYVYTLKNEKIVKHDSDNFAKETLWLRSRDDATSPSSSLLQALRAHVKKPGHIEATTNEWCLFTPDSP", "notes": "Mlh2, S. cerevisiae, from SK1 strain genomic DNA; Same chain as in m6; source: Hi5 insect cells (co-expressed with MBP-Mlh1), purified (MBP-trap, heparin, SEC); not shown: His6, N-terminal, kept; MBP, N-terminal, kept"}},
  "key": {"[1]": {"target": "T1, Mer3-Strep (full-length S. cerevisiae Mer3 with C-terminal 2xStrep-II tag) (S. cerevisiae, UniProt P51979 1-1187, phosphorylated in insect cells; high-confidence sites S17, S80, T100, S398, S958, T1092)", "T1 sequence (looked up)": "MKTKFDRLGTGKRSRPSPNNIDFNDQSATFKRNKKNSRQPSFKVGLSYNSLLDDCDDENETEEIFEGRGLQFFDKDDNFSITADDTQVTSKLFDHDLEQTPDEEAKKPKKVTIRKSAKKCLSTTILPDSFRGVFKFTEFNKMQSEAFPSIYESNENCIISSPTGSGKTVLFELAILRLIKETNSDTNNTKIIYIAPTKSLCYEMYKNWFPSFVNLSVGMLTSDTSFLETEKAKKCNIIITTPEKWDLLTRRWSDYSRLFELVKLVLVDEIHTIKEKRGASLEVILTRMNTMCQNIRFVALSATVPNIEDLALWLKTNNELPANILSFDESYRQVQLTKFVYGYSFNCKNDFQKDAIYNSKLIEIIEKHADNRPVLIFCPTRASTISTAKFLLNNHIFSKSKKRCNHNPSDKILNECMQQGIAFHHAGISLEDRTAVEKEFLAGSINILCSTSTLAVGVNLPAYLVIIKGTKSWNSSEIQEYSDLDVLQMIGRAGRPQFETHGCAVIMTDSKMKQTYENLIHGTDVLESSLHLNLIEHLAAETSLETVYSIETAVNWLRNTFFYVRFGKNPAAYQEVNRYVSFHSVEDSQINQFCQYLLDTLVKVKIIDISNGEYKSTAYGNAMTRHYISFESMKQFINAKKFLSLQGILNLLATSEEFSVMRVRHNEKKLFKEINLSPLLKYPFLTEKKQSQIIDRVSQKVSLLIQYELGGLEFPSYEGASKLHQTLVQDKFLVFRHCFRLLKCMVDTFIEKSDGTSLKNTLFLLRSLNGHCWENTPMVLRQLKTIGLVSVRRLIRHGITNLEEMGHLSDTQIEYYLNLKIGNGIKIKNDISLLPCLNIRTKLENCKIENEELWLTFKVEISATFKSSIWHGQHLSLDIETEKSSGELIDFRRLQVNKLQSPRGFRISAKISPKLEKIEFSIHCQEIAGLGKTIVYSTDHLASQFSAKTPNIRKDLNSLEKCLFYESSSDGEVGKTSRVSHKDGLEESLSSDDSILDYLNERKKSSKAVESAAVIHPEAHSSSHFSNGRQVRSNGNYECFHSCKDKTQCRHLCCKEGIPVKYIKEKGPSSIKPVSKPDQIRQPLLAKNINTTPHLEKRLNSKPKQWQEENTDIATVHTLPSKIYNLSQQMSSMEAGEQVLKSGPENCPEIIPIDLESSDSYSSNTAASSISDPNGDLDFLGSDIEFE", "assay": "MST; 45 nM RED-NHS labelled Mer3, partner titrated; 50 mM Tris–HCl pH 7.4, 150 mM NaCl, 10 mM MgCl2, 0.05% Tween-20; 25°C; triplicates", "settings": "both partners purified"}, "[2]": {"target": "T1, Mer3-Strep (full-length S. cerevisiae …)", "assay": "cross-linking; XL-MS with DSBU, proteins 3 μM, 1 h at 25°C; 30 mM HEPES 6.8, 150 mM NaCl, 5% glycerol, 1 mM MgCl2, 1 mM TCEP; samples: Mer3, Mlh1/Mlh2, Mer3/Mlh1/Mlh2, Top3/Rmi1, Mer3/Top3/Rmi1", "settings": "both partners purified"}},
  "data": [
    {"binder": "B1", "values": [
      {"measurement": "Kd", "setting": "[1]", "value": "844 ± 148", "unit": "nM"}
    ]},
    {"binder": "B2", "values": [
      {"measurement": "binding result", "setting": "[2]", "value": "binds"}
    ]},
    {"binder": "B3", "values": [
      {"measurement": "binding result", "setting": "[2]", "value": "binds"}
    ]}
  ]
}
